The record followed here is US20120167239A1.

This experiment deals with GAL4:CfEcR-DEF (yeast; Choristoneura fumiferana). As to the kind of experiment: cell-based or functional assay.

For VP16:LmUSP-EF, the maximum fold induction of luciferase reporter (two-hybrid switch, stable CHO clone 1A2, non-steroidal ligand) worked out at 162 fold and the maximum fold induction of luciferase reporter (two-hybrid switch, stable CHO clone 1A2, steroid PonA) was 42 fold.
